Patent publication US20250195677A1 (CEPHALON, published 2025)
Positions count from the first letter of the chain named.

B1: OMC.1.B6-hIgG4 (antibody, V domains shown)
VH: EVQLLESGGGLVQPGGSLRLSCAASGFTFSSNYMSWVRQAPGKGLEWVSAISSSGGTIFYADSVKGRFTISRDNSKNTLYLQMNSLRAEDTAVYYCAKHKWNAVYYDGMDVWGQGTTVTVSS
VL: QSVLTQPPSASGTPGQRVTISCSGSNSNIGRNLVNWYQQLPGTAPKLLIYTIDQRPSGVPDRFSGSKSGTSASLVISGLQSEDEADYYCAAWDGSLNAWVFGGGTKLTVLG
B2: OMC.1.D6-hIgG4 (antibody, V domains shown)
VH: B1 VH with S31D, N32Y, T69I, A103D, G108A
VL: B1 VL with I52V, V75A, Q80A, G94S, A98S
B3: 2A3.H7-hIgG4 (antibody, V domains shown)
VH: EVQLLESGGGLVQPGGSLRLSCAASGFTFKDYCMTWVRQAPGKGLEWVSAIVYSGGSTYYADSVKGRFTISRDNSKNTLYLQMNNLRAEDTAVYYCAKYTRASYFYDAMDVWGQGTTVTVSS
VL: EIVLTQSPGTLSLSPGERATLSCRASQSIGRSFLAWYQQKPGQAPRLLIYDASTRAADIPARFSGSGSGTDFTLTISSLEPEDFAVYYCQQYYDWPPLSFGGGTKVEIKR
B4: 1D5-hIgG4 (antibody, V domains shown)
VH: B3 VH with A23V, A24G, T28N, N85S, A102G
VL: B3 VL with A57T, A61D, D71E, E80Q, P81S, S99T
B5: 1H9-hIgG4 (antibody, V domains shown)
VH: B3 VH with A23V, A24G, T28N, F29L, N85S, A102G
VL: B3 VL with A61D, S77N, S78R, S99T
B6: OMC.2.C6-hIgG4 (antibody, V domains shown)
VH: EVQLLESGGGLVQPGGSLRLSCTASGFTFSSYEMQWVRQAPGKGLEWVLGITSSSSHIFYADSVKGRFTVSRDNSKNTLYLQMNSLRAEDTAVYYCTKDLNSYYGLDVWGQGTTVTVSS
VL: QSVMTQPPSASGTPGQRVTISCSGSTSNLGNNYVSWYQHLPGTAPKLLIYGNDQRPSGVPDRFSGSKSGTSASLAISGLQSDDEADYYCSSWDASLNVWVFGGGTKLTVLG
B7: A2-hIgG4 (antibody, V domains shown)
VH: DVQLVESGGGLVQPGGSLRLSCAASGFTFDISAMSWVRQAPGKGLEWVSTISGSAYSTYYADSVKGRFTISRDNSKSTLYLQMNSLRAEDTAVYYCAREIFSDYWGLGTLVTVSS
VL: QSVLTQPPSASGTPGQRVTISCSGSTSNIGRESVYWYQQLPGTAPKLLIYSNVQRPSGAPNRFSGSKSGTSASLAISGLQSEDEADYYCGTWDDSLNGWVFGGGTKLTVLG
B8: C51E6-5-hIgG4 (antibody, V domains shown)
VH: QVQLVQSGSELKKPGASVKVSCKASGYSLYGTSMHWVRQAPGQGLEWMGYISPFTGRATYAQGFTGRFVFSLDTSVSTAYLQISSLKAEDTAVYYCARDYDYRYYYAMDYWGQGTTVTVSS
VL: EIVLTQSPDFQSVTPKEKVTITCTASESVPPQFLHWYQQKPDQSPKLLIYASRERASGVPSRFSGSGSGTDFTLTINSLEAEDAATYYCHQFHRSPLTFGGGTKLEIKR
B9: 2H7-hIgG4 (antibody)
heavy: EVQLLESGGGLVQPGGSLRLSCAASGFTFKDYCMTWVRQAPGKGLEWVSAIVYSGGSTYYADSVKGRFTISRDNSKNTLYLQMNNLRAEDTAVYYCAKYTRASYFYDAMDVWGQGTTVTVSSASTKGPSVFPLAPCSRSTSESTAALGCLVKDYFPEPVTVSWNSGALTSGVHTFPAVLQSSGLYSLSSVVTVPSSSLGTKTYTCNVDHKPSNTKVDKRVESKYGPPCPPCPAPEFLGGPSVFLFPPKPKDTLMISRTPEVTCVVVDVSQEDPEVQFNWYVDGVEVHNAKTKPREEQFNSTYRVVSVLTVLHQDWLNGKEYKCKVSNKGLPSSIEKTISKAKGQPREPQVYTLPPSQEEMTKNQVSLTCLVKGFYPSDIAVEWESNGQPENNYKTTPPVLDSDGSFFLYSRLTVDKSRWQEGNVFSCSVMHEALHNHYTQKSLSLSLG
light: EIVLTQSPGTLSLSPGERATLSCRASQSIGKSFLAWYQQKPGQAPRLLIYDASTRAADIPARFSGSGSGTDFTLTISSLEPEDFAVYYCQQYYDWPPLSFGGGTKVEIKRTVAAPSVFIFPPSDEQLKSGTASVVCLLNNFYPREAKVQWKVDNALQSGNSQESVTEQDSKDSTYSLSSTLTLSKADYEKHKVYACEVTHQGLSSPVTKSFNRGEC
notes: human IgG4 kappa

The binders below were run against human PD-1 on Jurkat Effector cells (Promega PD-1/PD-L1 blockade bioassay) (human, UniProt Q15116 25-288) (assay: cell-based or functional assay).
Chain of human PD-1 on Jurkat Effector cells (Promega PD-1/PD-L1 blockade bioassay) (Q15116 25-288): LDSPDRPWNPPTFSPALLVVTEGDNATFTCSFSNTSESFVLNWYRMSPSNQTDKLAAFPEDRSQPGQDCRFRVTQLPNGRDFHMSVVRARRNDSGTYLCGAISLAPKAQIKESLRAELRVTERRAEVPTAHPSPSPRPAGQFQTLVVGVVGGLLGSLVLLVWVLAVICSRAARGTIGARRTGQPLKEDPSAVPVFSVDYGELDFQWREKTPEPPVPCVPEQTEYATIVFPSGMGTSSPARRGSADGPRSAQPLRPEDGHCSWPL

Binder | luminescence, hPD-1/hPD-L1 blockade bioassay [RLU]
B1 | ~3000
B2 | ~3000
B3 | ~3000
B4 | ~3000
B5 | ~3000
B6 | ~3000

The binders below were run against T1, human PD-1 (amino acids 1-185) stably expressed on Jurkat cells (human, UniProt Q15116 21-185) (assay: flow cytometry, Jurkat+hPD-1).
T1 construct: extracellular domain and a portion of the transmembrane domain, on cells; also called hPD-1; Jurkat+hPD-1 cell line
T1 sequence (Q15116 21-185 limits assumed, form in doubt): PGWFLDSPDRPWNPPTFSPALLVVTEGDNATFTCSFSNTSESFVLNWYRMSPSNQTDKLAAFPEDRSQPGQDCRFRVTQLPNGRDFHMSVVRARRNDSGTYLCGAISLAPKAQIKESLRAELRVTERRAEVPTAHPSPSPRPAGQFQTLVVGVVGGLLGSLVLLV
Procedure: (§1) Antibodies or antibody-attenuated hIL-2 immunoconjugates (fusion proteins) were serially diluted six-fold in FACS buffer for an 8-point curve and added to human PD-1 expressing Jurkat cells for 1 hour on ice in 100 μL volume. Cells were washed and re-suspended in FACS buffer containing 1:40 dilution of Allophycocyanin conjugated anti-human IgG Fc monoclonal antibody. Cells were washed once more, re-suspended in FACS buffer containing 1:1000 dilution of Sytox Green (Thermo Fisher) and flow cytometric analysis was conducted on the BD FACS Canto II, BD Celesta or BD Fortessa (BD Biosciences) flow cytometers. The geometric mean fluorescent intensity (gMFI) was calculated using FlowJo software version 10. Half maximal effective concentration (EC₅₀) values were calculated from the gMFI of the Allophycocyanin signal across the titrated concentrations using GraphPad Prism 7 software.
(§2) The anti-PD-1 variable region sequences were expressed as human IgG4 kappa antibodies and were evaluated for the ability to bind to PD-1 expressing cells using flow cytometry as described in General Methods Protocol A. Antibodies to be tested were first screened for binding to human PD-1 using a Jurkat cell line expressing recombinant human PD-1 (Jurkat+hPD-1 cell line).

Binder | EC50 [nM]
B1 | 3 to 16
B2 | 3 to 16
B7 | 3 to 16
B6 | 3 to 16

Each binder was assayed against T1, human PD-1 (amino acids 1-185) stably … (assay: flow cytometry, Jurkat+hPD-1 cells, APC anti-human IgG Fc, gMFI; no competitor).
Procedure: Briefly, Jurkat cells stably expressing hPD-1 (as described in Protocol A above) were washed and re-suspended in FACS buffer containing 1:50 dilution of human FcR Blocking reagent. Cells were incubated at 4° C. for 10 minutes and washed. […] Cells were washed and incubated with test antibodies or antibody-attenuated hIL-2 fusion proteins serially diluted six-fold for an 8-point curve in 100 μL volume for one hour at 4° C. To detect bound test anti-hPD-1 antibodies or anti-hPD-1-attenuated hIL-2 fusion proteins, cells were washed again and incubated with 1:40 dilution of Allophycocyanin-conjugated anti-human IgG Fc monoclonal antibody for 45 minutes on ice. Cells were washed and re-suspended in FACS buffer containing 1:1000 dilution of Sytox Green (Thermo Fisher). […] Flow cytometry was carried out on the BD Canto II, BD Celesta, or BD Fortessa (BD Biosciences) flow cytometers and gMFI was calculated using FlowJo software version 10. EC₅₀ values were calculated from the gMFI of the Allophycocyanin signal across the titrated concentrations using GraphPad Prism 7 software.

Binder | EC50 (read off the curve) [nM]
B8 | ~3

These binders were tested against T1, human PD-1 (amino acids 1-185) stably … (assay: flow cytometry, Jurkat+hPD-1, multiple experiments).
Procedure: as §1, §2

Binder | EC50 [nM]
B3 | 0.1 to 0.3
B4 | 0.1 to 0.3
B5 | 0.1 to 0.3
B9 | 0.1 to 0.3
